Literature values, collected in article PMC4681696.

Molecular target: p75NTR (Homo sapiens) (UniProt P08138)
Chain of UniProt P08138 (P08138 29-250): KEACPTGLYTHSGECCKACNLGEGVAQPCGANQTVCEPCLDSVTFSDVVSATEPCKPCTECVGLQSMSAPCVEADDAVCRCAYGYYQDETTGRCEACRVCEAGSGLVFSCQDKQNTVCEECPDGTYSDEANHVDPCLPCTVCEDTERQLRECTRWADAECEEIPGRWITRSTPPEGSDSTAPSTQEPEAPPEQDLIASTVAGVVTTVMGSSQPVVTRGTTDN

NGF (from UniProt P01138)
Kd: 7 nM
